Test results reported in PMC8519427.

Target: human α-SNAP with an Avitag and a C-terminal 6xHis tag (human) (UniProt P54920)
Experiment: BLI; Octet RED96, 25°C; 0.25 μM biotinylated α-SNAP loaded on streptavidin biosensor tips; analyte: purified Orai1 or Stim1 fragments at varying concentrations; PBS with 2 mg/ml BSA and 0.02% Tween-20; association 5 min, dissociation 10 min; double referencing; global fit to the 1:1 or 2:1 binding model

Sequence of human α-SNAP with an Avitag and a C-terminal 6xHis tag (human) (P54920 whole entry, the tested form may be a part): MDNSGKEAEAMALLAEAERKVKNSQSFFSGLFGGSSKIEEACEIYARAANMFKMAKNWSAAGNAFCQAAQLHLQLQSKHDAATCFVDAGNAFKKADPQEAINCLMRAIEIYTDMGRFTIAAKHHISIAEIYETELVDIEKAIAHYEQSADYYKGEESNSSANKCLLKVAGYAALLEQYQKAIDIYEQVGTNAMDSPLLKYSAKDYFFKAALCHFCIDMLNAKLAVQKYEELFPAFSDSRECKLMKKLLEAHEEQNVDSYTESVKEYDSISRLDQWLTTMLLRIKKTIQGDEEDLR

Row | KD1 (2:1 binding model, site 1) [nM] | KD2 (2:1 binding model, site 2) [µM] | Kd [nM] | koff [s⁻¹] | koff1 (2:1 binding model, site 1) [s⁻¹] | koff2 (2:1 binding model, site 2) [s⁻¹] | kon [M⁻¹ s⁻¹] | kon1 (2:1 binding model, site 1) [M⁻¹ s⁻¹] | kon2 (2:1 binding model, site 2) [M⁻¹ s⁻¹] | Substance
1 | 314 | 202 | 548 | 0.000595 | 0.000213 | 0.0306 | 1080 | 678 | 152 | purified untagged Orai1 245–292 (from UniProt Q96D31 245-292) (domain or fragment)
2 | 198 | 0.715 | 369 | 0.000506 | 5.62e-05 | 0.0279 | 1370 | 284 | 39000 | commercially synthesized Orai1 245–292 peptide (from UniProt Q96D31 245-292)
3 | – | – | 763 | 0.000117 | – | – | 154 | – | – | purified untagged Orai1 1–103 (from UniProt Q96D31 1-103) (domain or fragment)
